Source: patent US20090004644 (Conceptual MindWorks, Inc, published 2009)

Legend:
[1] = target: Botulinum neurotoxin type A heavy chain (UniProt P0DPI1 P0DPI1:449-1296)
[2] = target: Botulinum neurotoxin type A light chain (UniProt P0DPI1 P0DPI1:2-448)
[3] = target: Botulinum neurotoxin type B light chain (UniProt B1INP5 B1INP5:2-441)
[4] = target: Botulinum neurotoxin type B heavy chain (UniProt B1INP5 B1INP5:442-1291)
Botulinum neurotoxin type B heavy chain, sequence (B1INP5 442-1291, one chain of several): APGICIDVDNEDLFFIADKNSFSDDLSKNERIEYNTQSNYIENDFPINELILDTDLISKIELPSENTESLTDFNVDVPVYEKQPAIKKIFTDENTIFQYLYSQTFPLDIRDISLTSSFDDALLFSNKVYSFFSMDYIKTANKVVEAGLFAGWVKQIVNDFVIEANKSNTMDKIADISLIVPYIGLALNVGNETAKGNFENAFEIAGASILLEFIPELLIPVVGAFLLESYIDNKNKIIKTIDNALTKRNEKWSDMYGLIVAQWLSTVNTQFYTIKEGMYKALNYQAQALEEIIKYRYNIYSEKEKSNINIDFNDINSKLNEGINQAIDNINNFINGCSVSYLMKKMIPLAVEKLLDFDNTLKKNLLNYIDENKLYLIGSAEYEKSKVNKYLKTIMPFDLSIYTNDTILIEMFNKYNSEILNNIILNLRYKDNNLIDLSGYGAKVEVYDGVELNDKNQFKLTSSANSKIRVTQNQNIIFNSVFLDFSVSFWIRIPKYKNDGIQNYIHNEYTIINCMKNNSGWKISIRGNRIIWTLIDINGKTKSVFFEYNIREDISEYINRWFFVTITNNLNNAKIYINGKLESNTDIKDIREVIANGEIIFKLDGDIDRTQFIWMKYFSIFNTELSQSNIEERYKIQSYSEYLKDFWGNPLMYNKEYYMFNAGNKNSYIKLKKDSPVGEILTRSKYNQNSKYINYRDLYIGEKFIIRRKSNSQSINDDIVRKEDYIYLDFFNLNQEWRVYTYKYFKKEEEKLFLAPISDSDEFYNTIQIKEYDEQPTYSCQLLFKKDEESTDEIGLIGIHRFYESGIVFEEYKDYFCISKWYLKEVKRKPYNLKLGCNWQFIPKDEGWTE

Botulinum neurotoxin type A heavy chain, sequence (P0DPI1 449-1296, one chain of several): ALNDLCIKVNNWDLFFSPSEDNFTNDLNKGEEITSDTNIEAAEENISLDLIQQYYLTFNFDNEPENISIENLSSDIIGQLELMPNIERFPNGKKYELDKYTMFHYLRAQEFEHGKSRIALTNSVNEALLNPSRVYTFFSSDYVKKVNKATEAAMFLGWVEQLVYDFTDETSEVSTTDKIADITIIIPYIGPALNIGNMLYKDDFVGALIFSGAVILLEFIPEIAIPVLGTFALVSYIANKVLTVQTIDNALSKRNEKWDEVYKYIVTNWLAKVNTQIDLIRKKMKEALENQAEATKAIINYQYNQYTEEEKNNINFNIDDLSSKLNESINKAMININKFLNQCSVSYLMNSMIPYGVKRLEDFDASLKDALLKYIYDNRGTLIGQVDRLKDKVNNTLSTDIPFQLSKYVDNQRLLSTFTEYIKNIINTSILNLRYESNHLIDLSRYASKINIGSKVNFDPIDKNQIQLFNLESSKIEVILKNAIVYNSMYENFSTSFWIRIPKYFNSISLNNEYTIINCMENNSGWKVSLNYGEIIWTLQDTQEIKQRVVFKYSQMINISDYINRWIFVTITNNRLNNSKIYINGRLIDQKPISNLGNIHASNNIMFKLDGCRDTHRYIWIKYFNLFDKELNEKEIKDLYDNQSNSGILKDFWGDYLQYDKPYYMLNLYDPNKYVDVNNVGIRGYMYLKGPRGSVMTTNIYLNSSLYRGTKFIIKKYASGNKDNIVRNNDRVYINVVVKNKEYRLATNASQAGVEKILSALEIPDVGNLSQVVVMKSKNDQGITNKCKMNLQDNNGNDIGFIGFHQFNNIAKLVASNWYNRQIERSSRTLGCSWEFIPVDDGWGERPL
Botulinum neurotoxin type B light chain, sequence (B1INP5 2-441, one chain of several): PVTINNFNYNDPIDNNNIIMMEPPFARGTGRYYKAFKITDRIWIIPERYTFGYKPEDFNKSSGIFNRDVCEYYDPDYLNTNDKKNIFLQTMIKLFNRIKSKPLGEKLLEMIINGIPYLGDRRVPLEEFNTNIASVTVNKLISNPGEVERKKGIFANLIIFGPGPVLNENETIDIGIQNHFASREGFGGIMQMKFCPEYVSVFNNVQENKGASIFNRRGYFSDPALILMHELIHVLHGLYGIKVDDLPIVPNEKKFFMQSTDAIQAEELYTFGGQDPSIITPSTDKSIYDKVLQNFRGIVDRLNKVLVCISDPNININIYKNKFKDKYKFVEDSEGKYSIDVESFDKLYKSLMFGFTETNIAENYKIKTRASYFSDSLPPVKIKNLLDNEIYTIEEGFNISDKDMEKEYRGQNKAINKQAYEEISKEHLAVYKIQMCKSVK
Botulinum neurotoxin type A light chain, sequence (P0DPI1 2-448, one chain of several): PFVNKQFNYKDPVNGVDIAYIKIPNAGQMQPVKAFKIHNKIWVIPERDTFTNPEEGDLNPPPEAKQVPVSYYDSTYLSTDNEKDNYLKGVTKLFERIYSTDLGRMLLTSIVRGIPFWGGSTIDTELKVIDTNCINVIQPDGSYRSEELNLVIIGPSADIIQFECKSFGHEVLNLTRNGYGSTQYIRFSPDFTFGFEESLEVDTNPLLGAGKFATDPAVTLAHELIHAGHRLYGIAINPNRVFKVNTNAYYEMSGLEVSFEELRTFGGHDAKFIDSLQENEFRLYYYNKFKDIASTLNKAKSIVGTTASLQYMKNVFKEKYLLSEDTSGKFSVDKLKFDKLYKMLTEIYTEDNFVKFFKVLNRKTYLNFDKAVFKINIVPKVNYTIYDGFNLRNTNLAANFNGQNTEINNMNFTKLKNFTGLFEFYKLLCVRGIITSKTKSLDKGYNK

| Binder | binding result [1] | binding result [2] | binding result [3] | binding result [4] |
| --- | --- | --- | --- | --- |
| 3(+) SELEX LCA aptamer (DCE-3) (ssDNA) DNA: CATCCGTCACACCTGCTCTGGGGATGTGTGGTGTTGGCTCCCGTATCAAGGGCGAATTCT | binds | binds | binds | binds |
| LCA 1(+) (DCE-1) (ssDNA) DNA: AGTCTAGAGGGCCCCAGAATACACCCGACAACTAGATACCCATCAAAAGTCCAGCAAAGGATGCAGGGGT | no binding | binds |  | no binding |
| 4(+) SELEX holotoxin aptamer (DCE-4) (ssDNA) DNA: CATCCGTCACACCTGCTCTGCTATCACATGCCTGCTGAAGTGGTGTTGGCTCCCGTATCA | binds |  |  | binds |
| LCB 2(+) (DCE-2) (ssDNA) DNA: AGTCTAGAGGGCCCCAGAATTATCCACTAGCGGGAAGTAGTACATCTCACCCAGCAAAGGATGCAGGGGT |  |  | binds |  |
